Test results reported in patent US20180201681A1.

Assays:
[1] = biological target: human CD83 on the cell surface (KM-H2, L428, FDCP1 and BB88 cells transfected with full length human CD83) (human) (UniProt Q01151); experiment: competition by flow cytometry on KM-H2 cells, antibodies added at the same time; reduction of the 3C12-RPE signal in the presence of HB15a-FITC
[2] = biological target: human CD83 on the cell surface (KM-H2, L428, FDCP1 and BB88 cells transfected with full length human CD83) (human) (UniProt Q01151); experiment: flow cytometry on the CD83+ cell line KM-H2, background control

human CD83 on the cell surface (KM-H2, L428, FDCP1 and BB88 cells transfected with full length human CD83) (human), sequence (Q01151 20-205): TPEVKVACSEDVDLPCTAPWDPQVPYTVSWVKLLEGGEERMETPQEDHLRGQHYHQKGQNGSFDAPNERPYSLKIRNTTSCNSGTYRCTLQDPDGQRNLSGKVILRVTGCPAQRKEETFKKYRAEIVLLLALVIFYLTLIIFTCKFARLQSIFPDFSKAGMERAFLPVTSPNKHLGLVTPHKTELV

Substance | Reduction in 3C12 MFI (%) [1] | MFI [2]
HB15a (commercial anti-human CD83 mAb, Immunotech) (antibody) | 24.7% | 
isotype control (human IgG1) (antibody) |  | 335 MFI
